Experimental data as given in US20180155451A1 (published 2018).

T1: FcγRIIb extracellular domain with C-terminal His tag (human, UniProt P31994 43-217)
T1 construct: extracellular domain; also called FcgRIIb; 2b; not shown: His tag attached to the C terminus
T1 sequence (looked up): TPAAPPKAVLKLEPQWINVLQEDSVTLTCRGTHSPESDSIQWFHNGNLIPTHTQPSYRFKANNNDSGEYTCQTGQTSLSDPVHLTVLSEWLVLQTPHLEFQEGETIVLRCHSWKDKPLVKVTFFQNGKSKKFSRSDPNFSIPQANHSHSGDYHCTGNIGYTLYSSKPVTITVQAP

B1: GpH7-A5/GpH7-B3 variant K326_15Y/GpL16-k0 (antibody, human IgG1, kappa)
heavy 1: not shown
heavy 2: not shown
light: DIVMTQSPLSLPVTPGEPASISCQASESLVHSNRNTYLHWYLQKPGQSPQLLIYKVSNRFSGVPDRFSGSGSGTDFTLKISRVEAEDVGVYYCSQNTHVPPTFGQGTKVEIERTVAAPSVFIFPPSDEQLKSGTASVVCLLNNFYPREAKVQWKVDNALQSGNSQESVTEQDSKDSTYSLSSTLTLSKADYEKHKVYACEVTHQGLSSPVTKSFNRGEC
notes: Heterodimerized IgG1; alteration in one H chain only; also called He Ab
B2: GpH7-A5/GpH7-B3 variant K326_09D/GpL16-k0 (antibody, human IgG1, kappa)
heavy 1: not shown
heavy 2: not shown
light: B1 light
notes: as for B1
B3: GpH7-A5/GpH7-B3 variant N325_05P/GpL16-k0 (antibody, human IgG1, kappa)
heavy 1: not shown
heavy 2: not shown
light: B1 light
notes: as for B1
B4: GpH7-A5/GpH7-B3 variant A327_15Y/GpL16-k0 (antibody, human IgG1, kappa)
heavy 1: not shown
heavy 2: not shown
light: B1 light
notes: as for B1
B5: GpH7-A5/GpH7-B3 variant N325_08L/GpL16-k0 (antibody, human IgG1, kappa)
heavy 1: not shown
heavy 2: not shown
light: B1 light
notes: as for B1
B6: GpH7-A5/GpH7-B3 variant A327_03V/GpL16-k0 (antibody, human IgG1, kappa)
heavy 1: not shown
heavy 2: not shown
light: B1 light
notes: as for B1
B7: GpH7-A5/GpH7-B3 variant K326_10E/GpL16-k0 (antibody, human IgG1, kappa)
heavy 1: not shown
heavy 2: not shown
light: B1 light
notes: as for B1
B8: GpH7-A5/GpH7-B3 variant K326_04F/GpL16-k0 (antibody, human IgG1, kappa)
heavy 1: not shown
heavy 2: not shown
light: B1 light
notes: as for B1
B9: GpH7-A5/GpH7-B3 variant A327_10E/GpL16-k0 (antibody, human IgG1, kappa)
heavy 1: not shown
heavy 2: not shown
light: B1 light
notes: as for B1
B10: GpH7-A5/GpH7-B3 variant L328_03V/GpL16-k0 (antibody, human IgG1, kappa)
heavy 1: not shown
heavy 2: not shown
light: B1 light
notes: as for B1
B11: GpH7-A5/GpH7-B3 variant K326_07I/GpL16-k0 (antibody, human IgG1, kappa)
heavy 1: not shown
heavy 2: not shown
light: B1 light
notes: as for B1
B12: GpH7-A5/GpH7-B3 variant A327_18N/GpL16-k0 (antibody, human IgG1, kappa)
heavy 1: not shown
heavy 2: not shown
light: B1 light
notes: as for B1
B13: GpH7-A5/GpH7-B3 variant A327_16H/GpL16-k0 (antibody, human IgG1, kappa)
heavy 1: not shown
heavy 2: not shown
light: B1 light
notes: as for B1
B14: GpH7-A5/GpH7-B3 variant A327_04F/GpL16-k0 (antibody, human IgG1, kappa)
heavy 1: not shown
heavy 2: not shown
light: B1 light
notes: as for B1
B15: GpH7-A5/GpH7-B3 variant N325_09D/GpL16-k0 (antibody, human IgG1, kappa)
heavy 1: not shown
heavy 2: not shown
light: B1 light
notes: as for B1
B16: GpH7-A5/GpH7-B3 variant N325_06M/GpL16-k0 (antibody, human IgG1, kappa)
heavy 1: not shown
heavy 2: not shown
light: B1 light
notes: as for B1
B17: GpH7-A5/GpH7-B3 variant K326_03V/GpL16-k0 (antibody, human IgG1, kappa)
heavy 1: not shown
heavy 2: not shown
light: B1 light
notes: as for B1
B18: GpH7-A5/GpH7-B3 variant L328_02A/GpL16-k0 (antibody, human IgG1, kappa)
heavy 1: not shown
heavy 2: not shown
light: B1 light
notes: as for B1
B19: GpH7-A5/GpH7-B3 variant S298_05P/GpL16-k0 (antibody, human IgG1, kappa)
heavy 1: not shown
heavy 2: not shown
light: B1 light
notes: as for B1

Target: T2, FcγRIIIa extracellular domain with C-terminal His tag (human, UniProt P08637 17-208)
T2 construct: extracellular domain; also called FcgRIIIa; 3a; not shown: His tag attached to the C terminus
T2 sequence (P08637 17-208): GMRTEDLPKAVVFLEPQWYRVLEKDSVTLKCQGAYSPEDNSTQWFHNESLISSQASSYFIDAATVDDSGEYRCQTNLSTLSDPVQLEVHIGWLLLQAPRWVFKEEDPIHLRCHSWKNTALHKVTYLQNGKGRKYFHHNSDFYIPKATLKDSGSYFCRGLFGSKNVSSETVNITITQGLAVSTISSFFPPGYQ
Experiment: SPR (Biacore); He/Con_3a divided by He/Con_2b (reference: binding to FcγRIIb)
Experimental: (§1) Analysis of interaction between objective antibody and the FcγR was carried out using Biacore T100 (GE Healthcare). HBS-EP+ (GE Healthcare) was used as the running buffer, and the measurement temperature was set to 25° C. Chips produced by immobilizing the antigen peptide by the amine coupling method to a Series S Sencor Chip CM5 (GE Healthcare), or alternatively, chips produced by allowing preliminarily biotinylated antigen peptides to interact with and immobilize onto a Series S Sensor Chip SA (certified) (GE Healthcare) were used. Antibodies of interest were captured onto an antigen peptide-immobilized chip, and allowed to interact to each FcγR diluted with running buffer. To regenerate and repeatedly use the chip, the antibodies captured on the chip were washed off by reacting 10 mM glycine-HCl, pH 1.5.
(§2) The FcγR-binding activity of each antibody was assessed primarily using as an indicator the FcγR-binding activity and dissociation constant for FcγR.

Row | He_3a/2b (IIIa/IIb) [ratio] | Binder
1 | 0.7 | B1
2 | 0.69 | B2
3 | 0.39 | B3
4 | 0.77 | B4
5 | 0.17 | B5
6 | 0.48 | B6
7 | 0.62 | B7
8 | 0.66 | B8
9 | 0.49 | B9
10 | 0.63 | B10
11 | 0.7 | B11
12 | 0.54 | B12
13 | 0.69 | B13
14 | 0.72 | B14
15 | 0.39 | B15
16 | 0.14 | B16
17 | 0.7 | B17
18 | 0.55 | B18

Target: T1, FcγRIIb extracellular domain with …
Experiment: SPR (Biacore), relative binding
Experimental: as §1, §2

Row | He/Con_2b (IIb binding) | Binder
19 | 11.9 % of GpH7-A5/GpH7-B3/GpL16-k0 (=100) | B19
20 | 159 % of GpH7-A5/GpH7-B3/GpL16-k0 (=100) | B1
21 | 193 % of GpH7-A5/GpH7-B3/GpL16-k0 (=100) | B2
22 | 26 % of GpH7-A5/GpH7-B3/GpL16-k0 (=100) | B3
23 | 60.8 % of GpH7-A5/GpH7-B3/GpL16-k0 (=100) | B4
24 | 197 % of GpH7-A5/GpH7-B3/GpL16-k0 (=100) | B5
25 | 94.7 % of GpH7-A5/GpH7-B3/GpL16-k0 (=100) | B6
26 | 200 % of GpH7-A5/GpH7-B3/GpL16-k0 (=100) | B7
27 | 155 % of GpH7-A5/GpH7-B3/GpL16-k0 (=100) | B8
28 | 140 % of GpH7-A5/GpH7-B3/GpL16-k0 (=100) | B9
29 | 126 % of GpH7-A5/GpH7-B3/GpL16-k0 (=100) | B10
30 | 199 % of GpH7-A5/GpH7-B3/GpL16-k0 (=100) | B11
31 | 113 % of GpH7-A5/GpH7-B3/GpL16-k0 (=100) | B12
32 | 63.5 % of GpH7-A5/GpH7-B3/GpL16-k0 (=100) | B13
33 | 63.7 % of GpH7-A5/GpH7-B3/GpL16-k0 (=100) | B14
34 | 124 % of GpH7-A5/GpH7-B3/GpL16-k0 (=100) | B15
35 | 217 % of GpH7-A5/GpH7-B3/GpL16-k0 (=100) | B16
36 | 175 % of GpH7-A5/GpH7-B3/GpL16-k0 (=100) | B17
37 | 144 % of GpH7-A5/GpH7-B3/GpL16-k0 (=100) | B18

Target: T2, FcγRIIIa extracellular domain with …
Experiment: SPR (Biacore), relative binding
Experimental: as §1, §2

Row | He/Con_3a (IIIa binding) | Binder
38 | 112 % of GpH7-A5/GpH7-B3/GpL16-k0 (=100) | B1
39 | 134 % of GpH7-A5/GpH7-B3/GpL16-k0 (=100) | B2
40 | 10.2 % of GpH7-A5/GpH7-B3/GpL16-k0 (=100) | B3
41 | 46.8 % of GpH7-A5/GpH7-B3/GpL16-k0 (=100) | B4
42 | 33.3 % of GpH7-A5/GpH7-B3/GpL16-k0 (=100) | B5
43 | 45.8 % of GpH7-A5/GpH7-B3/GpL16-k0 (=100) | B6
44 | 124 % of GpH7-A5/GpH7-B3/GpL16-k0 (=100) | B7
45 | 103 % of GpH7-A5/GpH7-B3/GpL16-k0 (=100) | B8
46 | 68.6 % of GpH7-A5/GpH7-B3/GpL16-k0 (=100) | B9
47 | 78.7 % of GpH7-A5/GpH7-B3/GpL16-k0 (=100) | B10
48 | 139 % of GpH7-A5/GpH7-B3/GpL16-k0 (=100) | B11
49 | 61.1 % of GpH7-A5/GpH7-B3/GpL16-k0 (=100) | B12
50 | 43.7 % of GpH7-A5/GpH7-B3/GpL16-k0 (=100) | B13
51 | 46.2 % of GpH7-A5/GpH7-B3/GpL16-k0 (=100) | B14
52 | 48 % of GpH7-A5/GpH7-B3/GpL16-k0 (=100) | B15
53 | 31.4 % of GpH7-A5/GpH7-B3/GpL16-k0 (=100) | B16
54 | 122 % of GpH7-A5/GpH7-B3/GpL16-k0 (=100) | B17
55 | 79.1 % of GpH7-A5/GpH7-B3/GpL16-k0 (=100) | B18
